The values that follow come from US20110311550A1 (Scripps Research, published 2011).

The target of experiment [1] is T1, vaccinia-expressed E1E2 complex, isolate HCV-1 (genotype 1a) (hepatitis C virus, isolate HCV-1, UniProt P26664 192-383; P26664 384-746). The experiment is described as follows: competition ELISA on HCV-1 E1E2; competitor m7 (AR3D). On the technique in general: An ELISA detects its analyte on a solid surface through an enzyme-linked reagent.
Experiment [2] addresses E1E2 complex of HCV isolate H77 (genotype 1a), wild type (HCV isolate H77, UniProt P27958 192-383; P27958 384-746). The experiment is described as follows: competition ELISA on H77 E1E2; competitor m41 (Fab O1).
Experiment [3] deals with T1, vaccinia-expressed E1E2 complex, …. Description: competition ELISA on HCV-1 E1E2; competitor m29 (2/69A).
For experiment [4], the target named is E1E2 (Env) of HCV isolate UKN1B12.16 (genotype 1b) on HCVpp (hepatitis C virus, isolate UKN1B12.16). Description: cell-based or functional assay.
The target of experiment [5] is E1E2 (Env) of HCV isolate UKN5.15.7 (genotype 5) on HCVpp (hepatitis C virus, isolate UKN5.15.7). Description: cell-based or functional assay.
Experiment [6] has as its target T1, vaccinia-expressed E1E2 complex, …. The experiment is described as follows: competition ELISA on HCV-1 E1E2; competitor m35 (ALP98).
Experiment [7] has the same target. Description: competition ELISA on HCV-1 E1E2; competitor m27 (3/11).
For experiment [8] the target is unchanged. Description: competition ELISA on HCV-1 E1E2; competitor m32 (AP320).
The target in experiment [9] is E1E2 complex (H77) with E2 mutation R630A (HCV genotype 1a, isolate H77, UniProt P27958 192-383; P27958 384-746). Description: ELISA, lectin-captured E1E2 lysate, Ab 1 ug/ml.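 Also: E1E2 captured on Galanthus nivalis lectin-coated plates, bound antibody read out via HRP-linked secondary antibody with TMB colorimetric substrate.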
Experiment [10] concerns the target E1E2 complex (H77) with E2 mutation H617A (HCV genotype 1a, isolate H77, UniProt P27958 192-383; P27958 384-746). The experiment is described as follows: ELISA, lectin-captured E1E2 lysate, Ab 1 ug/ml.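 Also: E1E2 captured on Galanthus nivalis lectin-coated plates, bound antibody read out via HRP-linked secondary antibody with TMB colorimetric substrate.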
For experiment [11], the target named is E1E2 complex (H77) with E2 mutation E637A (HCV genotype 1a, isolate H77, UniProt P27958 192-383; P27958 384-746). The experiment is described as follows: ELISA, lectin-captured E1E2 lysate, Ab 1 ug/ml.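 Also: E1E2 captured on Galanthus nivalis lectin-coated plates, bound antibody read out via HRP-linked secondary antibody with TMB colorimetric substrate.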
In experiment [12] the target is E1E2 complex (H77) with E2 mutation N623A (HCV genotype 1a, isolate H77, UniProt P27958 192-383; P27958 384-746). Description: ELISA, lectin-captured E1E2 lysate, Ab 1 ug/ml.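 Also: E1E2 captured on Galanthus nivalis lectin-coated plates, bound antibody read out via HRP-linked secondary antibody with TMB colorimetric substrate.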
The target of experiment [13] is E1E2 complex (H77) with E2 mutation L441A (HCV genotype 1a, isolate H77, UniProt P27958 192-383; P27958 384-746). Description: ELISA, lectin-captured E1E2 lysate, Ab 1 ug/ml.
The target in experiment [14] is E1E2 complex (H77) with E2 mutation T435A (HCV genotype 1a, isolate H77, UniProt P27958 192-383; P27958 384-746). The experiment is described as follows: ELISA, lectin-captured E1E2 lysate, Ab 1 ug/ml.
The target of experiment [15] is E1E2 complex (H77) with E2 mutation A643G (HCV genotype 1a, isolate H77, UniProt P27958 192-383; P27958 384-746). Description: ELISA, lectin-captured E1E2 lysate, Ab 1 ug/ml.
Experiment [16] has as its target E1E2 complex (H77) with E2 mutation Y624A (HCV genotype 1a, isolate H77, UniProt P27958 192-383; P27958 384-746). Description: ELISA, lectin-captured E1E2 lysate, Ab 1 ug/ml.
For experiment [17], the target named is E1E2 complex (H77) with E2 mutation N448A (HCV genotype 1a, isolate H77, UniProt P27958 192-383; P27958 384-746). Description: ELISA, lectin-captured E1E2 lysate, Ab 1 ug/ml.
Experiment [18] has as its target E1E2 complex (H77) with E2 mutation F442A (HCV genotype 1a, isolate H77, UniProt P27958 192-383; P27958 384-746). Description: ELISA, lectin-captured E1E2 lysate, Ab 1 ug/ml.
Experiment [19] concerns the target E1E2 complex (H77) with E2 mutation A642G (HCV genotype 1a, isolate H77, UniProt P27958 192-383; P27958 384-746). The experiment is described as follows: ELISA, lectin-captured E1E2 lysate, Ab 1 ug/ml.
Experiment [20] addresses E1E2 complex (H77) with E2 mutation F447A (HCV genotype 1a, isolate H77, UniProt P27958 192-383; P27958 384-746). Description: ELISA, lectin-captured E1E2 lysate, Ab 1 ug/ml.
In experiment [21] the target is E1E2 complex (H77) with E2 mutation A439G (HCV genotype 1a, isolate H77, UniProt P27958 192-383; P27958 384-746). The experiment is described as follows: ELISA, lectin-captured E1E2 lysate, Ab 1 ug/ml.
The target of experiment [22] is E1E2 complex (H77) with E2 mutation N428A (HCV genotype 1a, isolate H77, UniProt P27958 192-383; P27958 384-746). The experiment is described as follows: ELISA, lectin-captured E1E2 lysate, Ab 1 ug/ml.
Experiment [23] has as its target E1E2 complex (H77) with E2 mutation G436A (HCV genotype 1a, isolate H77, UniProt P27958 192-383; P27958 384-746). Description: ELISA, lectin-captured E1E2 lysate, Ab 1 ug/ml.

B1: MAb AR1A (antibody, V domains shown)
VH: LEQSGAEVKKPGSSVKVSCRASGSPYSSYTITWVRQAPGQGLEWMGGIILMTGKANYAQKFQGRVTITADRATATAYMEMSSLTSDDTAIYYCARDPYVYAGDDVRSLSRWGQGTPVIVSS
VL: not shown
notes: also called IgG1 of Fab B2
B1: the “% residual binding” value worked out at 54% in experiment [1]; 76% in [2]; 86% in experiment [3]; 92% in experiment [6]; 66% in experiment [7]; 84% in [8]. Moreover, the “Neutralizing activity (IC50) on HCVpp” value in experiment [4] and in experiment [5] was > 50 µg/mL each time.

B2: MAb AR3D (antibody, V domains shown)
VH: LEQSGAEVKKPGSSVKVSCKASGDTFRSYVITWARQAPGQGLEWMGAIIPFFGTTNLAQKFQGRVTITADESTKTVYMDLSSLRSDDTAVYYCAKAGDLSVGGVLAGGVPHLRHFDPWGQGTLVTVSS
VL: ELTQSPGTLSLSPGERATLSCRAGQTVASNSLAWYQHKPGQAPRLLIYGASIRASGIPDRFSGSGSGTDFTLTISRLEPEDFAVYYCQQYGLSSTFGQGTRLEIKR
notes: also called IgG1 of Fab L4
As for B2, the “% residual binding” value in [1] stood at 14%; in [2], 83%; in [3], 56%; in experiment [6] it was 97%; in experiment [7] it was 37%; in experiment [8] it was 77%. In addition, the “Neutralizing activity (IC50) on HCVpp” value came to 1 µg/mL in experiment [4] and 10 µg/mL in experiment [5].

B3: MAb AR1B (antibody, V domains shown)
VH: LESGGGLVQPGGSLRLSCEASGYYFSSFAMSWVRQTPGKGLEWVSSIAGGTLGRTSYRDSVKGRFTISRDNSKNTVFLHMNNLRPEDTAVYYCAKDPLLFAGGPNWFDHWGQGTLVTVSS
VL: not shown
notes: also called IgG1 of Fab D1
B3: the “% residual binding” value is 84% in experiment [1]; 95% in experiment [2]; 85% in experiment [3]; 92% in experiment [6]; 61% in [7]; 83% in experiment [8]. The “Neutralizing activity (IC50) on HCVpp” value in experiment [4] and in experiment [5] was > 50 µg/mL in each case.

B4: MAb AR2A (antibody, V domains shown)
VH: LEQSGAEMKKPGASLKVSCKTSGYTFDDYGVTWVRQAPGQGLEWMGWISAYSGNTFYARKFQGRVTMTTDPSTRTAYMELRSLRSDDTAVYFCARDRGLAINGVVFPYFGLDVWGQGTTVTVSS
VL: ELTQSPVSLPVTPGEPASISCRSSQSLLHSNGNHYLDWYLQKPGQSPQLLMYLGSNRASGVPDRFSGSGSGTDFTLKISRVEAEDVGVYYCMQGLQTPWTFGQGTKVEIKR
notes: also called IgG1 of Fab G
As for B4, the “% residual binding” value was 75% in experiment [1]; 88% in [2]; 82% in [3]; 94% in experiment [6]; 94% in experiment [7]; 70% in experiment [8]. The “Neutralizing activity (IC50) on HCVpp” value in [4] is > 50 µg/mL; in experiment [5], 10 µg/mL.

B5: MAb AR3C (antibody, V domains shown)
VH: LEQSGAEVKKPGSSVKVSCETSGGTLDNYALNWVRQAPGQGLEWIGGVVPLFGTTRNAQKFQGRVTISDDKSTGTGHMELRSLRSEDTAVYYCVRSVTPRYCGGGFCYGEFDYWGQGTLVTVSS
VL: ELTQSPATLSVSPGERATLSCRASQSVSSNLAWYQQKPGQAPRLLIYGASTRATGIPARFSGSGSGTEFTLTVSRLEPEDSAVYFCQQYYRSPLTFGGGTKVEIKR
notes: also called IgG1 of Fab H3
As for B5, the “% residual binding” value worked out at 12% in [1]; 77% in experiment [2]; 68% in experiment [3]; 99% in experiment [6]; 44% in [7]; 81% in experiment [8]. Also, the “Neutralizing activity (IC50) on HCVpp” value in [4] and in experiment [5] was 1 µg/mL each time.

B6: N4 IgG (antibody, V domains shown)
VH: VQLLEQSGPEVKKPGDSLRISCKMSGDSLVTTWIGWVRQKPGQGLEWMGIINPGDSSTNIYPGDSATRYGPSFQGQVTISIDKSTSTAYLQWNNVKASDTGIYYCARHVPVPISGTFLWREREMHDFGYFDDWGQGTLVIVSS
VL: ELTLTQSPGTLSLSPGERATLSCRASQSVSNNYLAWYQQKPGQAPRLLIYGASSRATGIPDRFSGSGSGTGFTLIISRLEPEDFAVYYCQQYGSSSITFGQGTRLEIKR
notes: also called IgG N4
Consider B6, for which the “Binding relative to wt (%)” value in [9] came to 115%; in experiment [10], 21%; in experiment [11], 67%; in experiment [12], 54%; in [13] it was 18%; in experiment [14], 122%. Besides, the “Binding relative to wt (%)” value stood at 34% in experiment [15]; 59% in experiment [16]; 48% in [17]; 22% in [18]; 65% in experiment [19]; 28% in experiment [20]. Further, the “Binding relative to wt (%)” value amounted to 12% in experiment [21], 98% in [22] and 107% in experiment [23].
